# Experimental data from patent US5624900A, “Peptide or its salts” (Kuraray Co., Ltd., priority 1990, dated 1997).
# Non-standard residues stand in square brackets, D forms with d. Nle = CCCC[C@H](N)C(=O)O
# Molecular target: T1, human IL-1β (Homo sapiens, UniProt P01584)
# T1 construct: purchased Amersham Japan
# Test: Binding activity for human IL-1: 125I-labelled human IL-1β retained on peptide-immobilized cellulose adsorbent
# Settings: radioactivity remaining on 100 mg adsorbent (1 mg peptide fixed per g cellulose) after about 300 Bq 125I-labelled human IL-1β, room temperature 3 hours, 5 washes; γ counter
# Experimental: Adsorbents each having fixed 1 mg of one of the peptides obtained in Examples 1 through 15 and the Comparative Example were prepared as follows. One gram of a granular cellulose (CM-CELLULOFINE CH, available from Seikagaku Kogyo Co., Ltd.) is suspended in 5 ml of dioxane purified by distillation in the presence of sodium metal. To the suspension thus obtained was added 0.05 g of N-hydroxysuccinimide and 0.1 g of dicyclohexylcarbodimide, and the mixture was shaken at a room temperature for 1 night. The mixture thus obtained was washed with a 0.02 mole/l phosphate buffer (pH: 7.4) and then filtered with suction. The granules thus obtained were mixed with 1 ml of 0.02 mol/l phosphate buffer or purified water containing 1 mg of each one of the peptides obtained in Examples 1 through 15 and the Comparative Example. The mixtures were shaken overnight at a temperature of 4° C. and filtered with suction.
# From the thus prepared adsorbents, 100 mg each was weighed, and thereto was added 100 μl of 5% solution of bovine serum albumin in PBS (a 10 mM phosphate buffer solution containing 0.15M NaCl, pH: 7.4). The mixtures were incubated overnight at 4° C., then about 300 Bq of ^125 I-labelled human IL-1β (purchased from Amersham Japan) was added to them and the mixtures were incubated at a room temperature for 3 hours. The reaction mixtures thus obtained were washed 5 times with Tris buffer containing 0.2% of Triton X-100 and then tested for radioactivity remaining on the adsorbents with a γ counter.
# T1 sequence (P01584 117-269): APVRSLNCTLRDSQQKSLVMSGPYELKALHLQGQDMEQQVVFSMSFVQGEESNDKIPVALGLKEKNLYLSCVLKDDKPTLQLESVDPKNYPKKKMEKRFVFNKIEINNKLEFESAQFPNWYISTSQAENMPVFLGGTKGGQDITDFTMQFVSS
row,Molecule,Radioactivity (cpm)
1,"NCC(=O)O [Reference Example, glycine, reference compound]",45
2,H-CLRIKIS-OH [Example 6],815
3,H-Cys-Leu-Gln-Ile-Lys-Ile-Ser-OH (H-CLQIKIS-OH) [Example 8],678
4,H-K[Nle]C[Nle]R[Nle]Q[Nle]S-OH [Example 11],1292
5,H-Lys-Asn-Ser-Ser-Tyr-Cys-Leu-Arg-Ile-Lys-Ile-Ser-Ala-Lys-Phe-Val-Glu-OH (H-KNSSYCLRIKISAKFVE-OH) [Example 2],764
6,H-Lys-Cys-Leu-Arg-Ile-Lys-Ile-Ser-OH (H-KCLRIKIS-OH) [Example 7],576
7,H-Lys-Cys-Leu-Gln-Ile-Gln-Ile-Ser-OH (H-KCLQIQIS-OH) [Example 9],1100
8,H-Lys-Cys-Val-Gln-Val-Gln-Val-Ser-OH (H-KCVQVQVS-OH) [Example 14],890
9,H-Lys-Ile-Cys-Ile-Arg-Ile-Gln-Ile-Ser-NH2 (H-KICIRIQIS-NH2) [Example 15],1427
10,H-Lys-Ile-Cys-Ile-Arg-Ile-Gln-Ile-Ser-OH (H-KICIRIQIS-OH) [Example 10],1373
11,H-Lys-Ile-Cys-Ile-His-Ile-Gln-Ile-Ser-OH (H-KICIHIQIS-OH) [Example 12],1167
12,H-Lys-Ile-Cys-Leu-Arg-Ile-Gln-Ile-Ser-OH (H-KICLRIQIS-OH) [Example 13],1245
13,H-Lys-Tyr-Cys-Leu-Arg-Ile-Lys-Ile-Ser-Ala-Lys-Phe-Val-Glu-Asn-Glu-Pro-OH (H-KYCLRIKISAKFVENEP-OH) [Example 3],1171
14,H-Tyr-Cys-Leu-Arg-Ile-Lys-Ile-Ser-Ala-Lys-OH (H-YCLRIKISAK-OH) [Example 4],891
15,H-Tyr-Cys-Leu-Arg-Ile-Lys-Ile-Ser-OH (H-YCLRIKIS-OH) [Example 5],840
16,"H-Tyr-Ser-Leu-Glu-Ile-Lys-Ile-Ser-OH (H-YSLEIKIS-OH) [Comparative Example, reference compound]",84
17,H-Val-Val-Arg-Asn-Ser-Ser-Tyr-Cys-Leu-Arg-Ile-Lys-Ile-Ser-Ala-Lys-OH (H-VVRNSSYCLRIKISAK-OH) [Example 1],922
